pKd: −log10 of the molar value. “And” between values parts separate entries of the source, which are not always exact repeats. Equal entries are not always repeated.

In experiment [1] the target is Human IgG1 Fc bearing the Abdeg mutations (efgartigimod) (human). Kind of experiment: SPR + BLI; Fcs immobilised on chips or captured on biosensors; human or mouse FcRn at 1,600 nM to 50 nM in 2-fold dilutions, pH 6.0; Biacore 3000 and Octet K2 both named.
The target in experiment [2] is Human IgG1 Fc bearing the F241A mutation, produced in CHO-K1 cells coexpressing hST6GAL1 and hB4GALT1 (human). The experiment is described as above.
Experiment [3] has as its target Human IgG1 Fc bearing the Abdeg mutations (Fc^Abdeg, efgartigimod) (human). Briefly: SPR + BLI; Fc immobilised on chips / captured on biosensors; human or mouse FcRn at 1,600 nM to 50 nM in 2-fold dilutions, pH 6.0; Biacore 3000 and Octet K2 are both named.
In experiment [4] the target is Wild-type human IgG1 Fc (human). Kind of experiment: SPR + BLI; Fcs immobilised on chips or captured on biosensors; human or mouse FcRn at 1,600 nM to 50 nM in 2-fold dilutions, pH 6.0; Biacore 3000 and Octet K2 both named.
In experiment [5] the target is Specific ICAM-3–grabbing non-integrin-related-1 (SIGN-R1; CD209b) (UniProt Q8CJ91). Briefly: flow cytometry on cells (SIGN-R1+/+ murine BMDMs). Particulars: type I FcγRs blocked; PBS control = 1; read off a plot.
Specific ICAM-3–grabbing non-integrin-related-1 (SIGN-R1; CD209b), sequence (Q8CJ91 whole entry): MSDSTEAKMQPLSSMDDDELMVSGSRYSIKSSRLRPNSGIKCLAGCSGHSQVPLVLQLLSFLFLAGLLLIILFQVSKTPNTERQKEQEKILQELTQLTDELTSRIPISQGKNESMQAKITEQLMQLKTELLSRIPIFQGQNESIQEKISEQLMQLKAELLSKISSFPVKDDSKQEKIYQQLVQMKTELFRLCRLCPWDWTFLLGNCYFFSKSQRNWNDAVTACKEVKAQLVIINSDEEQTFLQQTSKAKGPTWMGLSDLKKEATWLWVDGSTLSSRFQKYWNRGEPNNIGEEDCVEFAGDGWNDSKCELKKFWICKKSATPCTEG

Human neonatal Fc receptor (FcRn), sequence (P55899 24-297): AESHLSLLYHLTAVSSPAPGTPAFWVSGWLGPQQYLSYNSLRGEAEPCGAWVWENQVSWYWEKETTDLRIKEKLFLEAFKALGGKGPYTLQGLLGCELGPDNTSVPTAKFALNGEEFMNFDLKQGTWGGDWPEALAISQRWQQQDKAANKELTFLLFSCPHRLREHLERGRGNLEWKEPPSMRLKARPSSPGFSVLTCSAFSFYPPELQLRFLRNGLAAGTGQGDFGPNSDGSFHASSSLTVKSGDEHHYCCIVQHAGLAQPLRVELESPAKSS
Human neonatal Fc receptor (FcRn), sequence (P61769 21-119): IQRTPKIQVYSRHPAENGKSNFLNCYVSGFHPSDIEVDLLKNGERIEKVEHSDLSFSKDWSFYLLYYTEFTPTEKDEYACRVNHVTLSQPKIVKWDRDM
Mouse neonatal Fc receptor (FcRn), sequence (Q61559 22-297): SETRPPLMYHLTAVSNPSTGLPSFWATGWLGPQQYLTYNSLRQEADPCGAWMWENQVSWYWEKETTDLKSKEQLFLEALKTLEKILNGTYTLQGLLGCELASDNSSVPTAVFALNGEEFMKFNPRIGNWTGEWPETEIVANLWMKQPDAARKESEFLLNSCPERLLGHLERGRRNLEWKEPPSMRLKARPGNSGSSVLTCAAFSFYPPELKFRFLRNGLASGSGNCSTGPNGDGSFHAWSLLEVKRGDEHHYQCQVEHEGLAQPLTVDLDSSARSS
Mouse neonatal Fc receptor (FcRn), sequence (P01887 21-119): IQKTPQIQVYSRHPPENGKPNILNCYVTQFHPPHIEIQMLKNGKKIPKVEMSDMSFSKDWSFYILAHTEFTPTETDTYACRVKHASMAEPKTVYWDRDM

As to “Human neonatal Fc receptor (FcRn) (from UniProt P55899 24-297; P61769 21-119)”, the pKd in experiment [1] was 8.22; in experiment [2], 6.88 and 6.59 and 6.68.

For “Human neonatal Fc receptor (hFcRn) (from UniProt P55899 24-297)”, in experiment [3], the fold enhanced affinity compared with Fc^F241A and Fc^WT stood at 96 fold; the fold lower KD than that of Fc^F241A/B4ST6 was found to be 39 fold.

For the substance “Mouse neonatal Fc receptor (FcRn) (from UniProt Q61559 22-297; P01887 21-119)”, the pKd was 9.57 and 9.55 and 9.59 in experiment [1]; 7.29 and 7.11 and 7.06 in experiment [2]; 7.29 and 7.14 and 7.07 in experiment [4].

“Mouse neonatal Fc receptor (mFcRn) (from UniProt Q61559 22-297)”: in experiment [3], the fold enhanced affinity compared with human FcRn was more than 10 fold and the fold lower KD than that of Fc^F241A/B4ST6 was found to be 267 fold.

Regarding Wild-type human IgG1 Fc (Fc^WT) F241A, in experiment [5], the response (fold change in MFI (normalized to PBS)) came out at 1.6.

The values are drawn from paper PMC10866649.
